Data reported in the supplement of paper PMC9170038.

Tested on: MS2 coat protein
Experiment: apparent KD of MS2 coat protein; designed switch direction (-1 OFF switch, 1 ON switch): -1; higher = weaker reporter binding
How it was run: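 Three titration conditions were used: no input, 200 uM small-molecule ligand, and an oligonucleotide input. In each, SNAP-549-labelled MS2 coat protein was raised from 0.7 or 1.5 nM, doubling, to 3 µM over designed RNA switches transcribed on Illumina chips by stalled E. coli RNA polymerase. Curve fits of normalised cluster fluorescence gave values whose per-design median over clusters is the apparent KD.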

[1] = input ligand: microRNA oligo, concentration not stated
[2] = Eterna round: R95, input ligand: microRNA oligo, concentration not stated
[3] = Eterna round: R95, input ligand: FMN 200 uM
[4] = Eterna round: R95, input ligand: none

Row | Sequence | apparent KD of MS2 coat protein (input ligand: FMN 200 uM) [nM] | apparent KD of MS2 coat protein [1] [nM] | apparent KD of MS2 coat protein (input ligand: none) [nM] | apparent KD of MS2 coat protein [2] [nM] | apparent KD of MS2 coat protein [3] [nM] | apparent KD of MS2 coat protein [4] [nM]
1 | CAUUCCUAGCGAGGAUAUCAGUAAAAGGGAAGCUGAGAAGGCGCAAACAUGAGGAUCACCCAUGUCACACGCGGGUAGUUUUCC [Uslazaxe] (Eterna round: R96, puzzle: Exclusion NG 1) | 16.2 | 10.8 | 14.3 | – | – | –
2 | CAUUGUUACGGAGGAUAUCGUAUUGAGAUACUAUGAGAAGGCCGAAUAAACAUGAGGAUCACCCAUGUGAGACGGAUGCUUGUG [Ex NG1 #35] (Eterna round: R96, puzzle: Exclusion NG 1) | 33.1 | 14.9 | 18.9 | – | – | –
3 | CAUUUCAGUCGGAGAUCCAACAUGAGGAUCACCCAUGUCUCUAAAGCUUUUUGCUCGUCUUAUCCUCCUUUGUUCAC [JR_STOV1_Sub098] (Eterna round: R97, puzzle: Sensor, turn-off variant 1) | 458 | – | 299 | – | – | –
4 | CCAACCAGAGGAUAUGCGCAUAGAUCAGACUUUGUUUCUUAACAUGAGGAUCACCCAUGUAGAAGGCUGUAACC [Ex2 #76] (Eterna round: R97, puzzle: Exclusion 2) | 21.6 | – | 20 | – | – | –
5 | CCAAGAAUAGGAUAUACACCAUGUCAGCUUAUAUACAACGAACAUGAGGAUCACCCAUGUAGAAGGGUUCUCUC [Exclusion-2-#1] (Eterna round: R97, puzzle: Exclusion 2) | 430 | – | 479 | – | – | –
6 | CCAAGCUUAUUCAUUAACAACAUGAGGAUCACCCAUGUAUAGGCAAUUAUGUCUGGGCUCUUUAGUGCUCGUCUUAU [Sensor-V1 #24] (Eterna round: R97, puzzle: Sensor, turn-off variant 1) | 18 | – | 19.8 | – | – | –
7 | CCAAGCUUAUUCAUUAACCACAUGAGGAUCACCCAUGUAUAGGCAAUUAUGACUGGGCUCUGUGGUGCUCGUCUUCU [mod-malcom] (Eterna round: R97, puzzle: Sensor, turn-off variant 1) | 59.7 | – | 60.3 | – | – | –
8 | CCAGCGUAUGUGAGGAUAUGCUGGUCCUUGGAUCAGCAGAAGGCACAUGAGGAUCACCCAUGUGGAAACGUUGG [JL bmx4 3.41] (puzzle: Brourd's mod of Exclusion 4) | – | – | – | 16.4 | – | –
9 | CCAGCGUAUGUGAGGAUAUGCUGGUCCUUGGAUCAGCAGAAGGCACAUGAGGAUCACCCAUGUGGAAACGUUGG [Mod of JL 1 - Jieux - Brourd's mod of Exclusion 4] (Eterna round: R97, puzzle: Brourd's mod of Exclusion 4) | 95.4 | – | 24.3 | – | – | –
10 | CCAUAUAACUGAGGAUAUAAUCACCACUAACAUUUAGAAGGCAGACAUGAGGAUCACCCAUGUGAUUUCUCAAUAUUAUACAUC [Prohibition 77 - Jieux - Exclusion NG 1] (Eterna round: R96, puzzle: Exclusion NG 1) | 387 | 544 | 1140 | – | – | –
11 | CCAUCACAUGAGGAUCACCCAUGUUAGGAUAUCAUUAGCCUCGGAGCUAUAGCGAGGUUGAGAAGGGACAUGUC [Eternabot (L1) Solution 87] (Eterna round: R97, puzzle: Exclusion 1) | 19.9 | – | 22.7 | – | – | –
12 | CCAUGAUAAGGAUAUUGAAGGUUCGACAUGAGGAUCACCCAUGUUAUGUUGGAAAAGGGACAAGAAGGUAUUAAUU [salish99_ex5_r4_221] (Eterna round: R97, puzzle: Exclusion 5) | 48.2 | – | 45.8 | – | – | –
13 | CCAUGUUAGCAGGAUAUGCUAUUAAUCUUUUAUGCAGAAGGGCUUACAUGAGGAUCACCCAUGUAUUAAGUCAA [JR_E6_Sub077] (puzzle: Exclusion 6) | – | – | – | 13.2 | – | –
14 | CCAUUCAGAGGAUAUGCGCAUAAAUAAGACUUUUUUUUUUAACAUGAGGAUCACCCAUGUAGAAGGCUGUAACC [Ex2 #46] (Eterna round: R97, puzzle: Exclusion 2) | 24.6 | – | 24.8 | – | – | –
15 | CCCACAAGCUUUUUGCUCGACAUGAGGAUCACCCAUGUAAAAUGGGUAAAUUUAAAUUGAAACAAUUUAAAUUUGGG [-20.1, -44.2 kcal, A 35%] (Eterna round: R97, puzzle: Sensor, turn-off variant 1) | 262 | – | 222 | – | – | –
16 | CCCAGGGCAGGAUAUAGAGGGUGAAACAUGAGGAUCACCCAUGUGACCUCGGAACAGCUGCUAGAAGGGCCAAAUU [Eszaraxe] (puzzle: Exclusion 5) | – | – | – | 15.3 | 19.2 | 16.3
17 | CCCAGUUAUUGAGGAUAUCGUACAUGAGGAUCACCCAUGUAAUAAAUGAGGAUUUCGGGUGUCUACGAGAAGGCAAGGAUAGGC [Ostracism 21 - Jieux - Exclusion NG 2] (Eterna round: R96, puzzle: Exclusion NG 2) | 61.3 | 37.4 | 49.6 | – | – | –
18 | CCCAUGUUAGGAUAUAUGGAAGGGCAGACGGGCGCCCUAAGGUAGAAGGAACAUGAGGAUCACCCAUGUAAUAA [Zausteesre] (Eterna round: R97, puzzle: Exclusion 4) | 113 | – | 67.3 | – | – | –

Row | Sequence | apparent KD of MS2 coat protein (input ligand: FMN 200 uM) [nM] | apparent KD of MS2 coat protein [1] [nM] | apparent KD of MS2 coat protein (input ligand: none) [nM] | apparent KD of MS2 coat protein [2] [nM] | apparent KD of MS2 coat protein [3] [nM] | apparent KD of MS2 coat protein [4] [nM]
19 | CCCGACAUGUCUUCGUAAUACAUGAGGAUCACCCAUGUCACGUAGGAUAUCCAGUCGGUAAGAGAGGAGAAGGAUGUAAGAAAU [Vedite] (Eterna round: R96, puzzle: Exclusion NG 3) | 15.5 | 9.14 | 15.5 | – | – | –
20 | CCCGUCGAUGUAGGAUAUGCCCGGGUCUCCCGGGCAGAAGGACAUGAGGAUCACCCAUGUUCAUGAGGAUCACCCAUGAAUGGG [Double but mutated MS2] (Eterna round: R96, puzzle: Exclusion NG 1) | 12.1 | 12.1 | 16.6 | – | – | –
21 | CCCGUGUAAGGAUAUCGUUCACUUGGCAAAAGUCGAGUGGACGAGAAGGUACAUGAGGAUCACCCAUGUACGGG [-32.4, -32 kcal, A 28%] (Eterna round: R97, puzzle: Exclusion 4) | 406 | – | 282 | – | – | –
22 | CCCUCACUUGAGGAUCACCCAAGUCAGGAUAUCUCACCCAUCCUACGGGACGGGUCACAGAGAAGGGACUAAAA [Isdius] (Eterna round: R97, puzzle: Exclusion 1) | 37.3 | – | 20 | – | – | –
23 | CCCUCAUGACGCACAUGAGGAUCACCCAUGUAUAAACCGUCAGAGGAUAUCCGCCGGUCACCGAAGGAGAAGGCUGACCUAAAG [Quinlaan] (Eterna round: R96, puzzle: Exclusion NG 3) | 21.2 | 11 | 18.2 | – | – | –
24 | CCCUCGGGAGGAUAUGGGUGUUUUUACAUGAGGAUCACCCAUGUGGAGUAGCAUGUGGGUCCAGAAGGCCCAAGGG [-27.5, -25.8 kcal, 22% A] (Eterna round: R97, puzzle: Exclusion 5) | 873 | – | 815 | – | – | –
25 | CCGAACAUAGGAUAUACAUGAGGAUCACCCAUGUAUAUAAAAGGGUGUUCCAACUAAAGUAGAAGGAUGUAAGG [ExFusion 1 - Jieux - Exclusion 3] (Eterna round: R97, puzzle: Exclusion 3) | 36.5 | – | 40.6 | – | – | –
26 | CCGAGGCUAGGAUAUUGACGAUAAUACAUGAGGAUCACCCAUGUGAGUCGUGUAUGCGCGCAAGAAGGAGUAAUAA [Tiorreonbi] (puzzle: Exclusion 5) | – | – | – | 15.2 | – | –
27 | CCGCAAAUGAAGGAUAUCGUAUCGGAUACGAUACGAGAAGGUCGAACAUGAGGAUCACCCAUGUGUCCUAGCGG [Fiskers Ex 6 - 41] (puzzle: Exclusion 6) | – | – | – | 11.2 | 19.4 | 12.1
28 | CCGCUAAGAGCAGGAUAUGAGUAACAUGAGGAUCACCCAUGUGGACCAUGAAACAGUCCACGCAGUCAGAAGGGUUACGUGGCA [Eternabot solution 33] (Eterna round: R96, puzzle: Exclusion NG 2) | 38.8 | 23.1 | 34.3 | – | – | –
29 | CCGCUGCAAGGAUAUACUUGCGGUGAUGUUCGAGUUCUUCUACUUGAGGAUCACCCAAGUAGAAGGUGCAAAAC [jl-ex2.4.58 ViennaUCT mod] (Eterna round: R97, puzzle: Exclusion 2) | 19.2 | – | 19.3 | – | – | –
30 | CCGCUGCAAGGAUAUACUUGCGGUGGUGUUCGAGUUCUUUUACUUGAGGAUCACCCAAGUAGAAGGUGCAAAAC [jl-ex2.4.54 ViennaUCT mod] (Eterna round: R97, puzzle: Exclusion 2) | 17.3 | – | 16.2 | – | – | –
31 | CCGGAAAUAGAGGAUAUCGUAUCGGAUACGAUACGAGAAGGCUAUACAUGAGGAUCACCCAUGUGUCCUACCGG [Fiskers Ex 6 - 56] (puzzle: Exclusion 6) | – | – | – | 16.1 | – | –
32 | CCGGAAAUGCAGGAUAUCGUAUCGGAUACGAUACGAGAAGGGUAUACAUGAGGAUCACCCAUGUGUCCUCCCGG [Fiskers Ex 6 - 53] (puzzle: Exclusion 6) | – | – | – | 28 | – | –
33 | CCGGAAGUACAGGAUAUCGUAUCGGAAACGAUACGAGAAGGGUAUACAUGAGGAUCACCCAUGUGUCCUACCGG [Fiskers Ex 6 - 27] (puzzle: Exclusion 6) | – | – | – | 23.3 | – | –
34 | CCGGAAGUAGAGGAUAUAGGAGUCGAUAGACUCCUAGAAGGCUAUACAUGAGGAUCACCCAUGUGUCCUACCGG [Fiskers Ex 6 - 68] (puzzle: Exclusion 6) | – | – | – | 19.1 | – | –
35 | CCGGAAUUGAAGGAUAUAGGAGUCGAUAGACACCUAGAAGGUCAGACAUGAGGAUCACCCAUGUGUCCUACCGG [Fiskers Ex 6 - 86] (puzzle: Exclusion 6) | – | – | – | 21 | 27.4 | 17.4
